# Measurements from a protein production outcome set (Wang et al. 2014).
# Test: label from the status in PepcDB records
row,Sequence,protein production
1,MPKTSHPFQLSLLALAVSAVLVSGCNSSDNDDDLATEAQVTGLTLEFAGRYSTGQFDESAAEITAFDPASRRAFVVNALSGAVDVLDMSDPVNPAKIDTLTVADIAADAVVNSVAVANGLVAVAVESNPKTDPGYVAVFGAADLQLRDSIQVGAQPDMVTFTPDGQYVLAANEGEPSDDYQVDPEGSISVVDVSNPASLTVRIADFLAFNSQESDLKASGVRIYGPGATVAQDLEPEYITVSADSRAAWVSLQENNALAKLDIDTATVTGILPLGFKDYGVEGQGIDASDDDGVINIQRWPGVVGIYHPDAIDSYQANGETFIVTANEGDARAWGEDDADYWNGDSSRGFVEELRVKHLVHPDGFARRIGDDMPSQLTALAEGALLNPSVFDYCGATAGAANACRDDDQLGRLNISWVQGYRVDENGAPVMFNASGAEDPDGTLLMYDQLYSYGTRSLAIWNEDGELVWDSGDAIEQFLASEDCRLGTARSIPCSDHFNSAHDEGMAFDSRSDAKGPEPEAVTVATFGNKTFAFLGLERMGGILVYDVTDPASPVQVDYLNTRDDWTTVDTASVLETAGDLGVESITVVAADDSPTGEPLLITGNEVSGTTAIYRVKLELTD,failed
2,MPAPRYKSGSSKKVYRKAPGNSSIVHYRRKKQSKAVCGACGALLNGVPRGRAVEITKLAKTEKRPERPFGGNLCPKCVKKMMVAKARNFLEHHHHHH,not failed
3,MSLSFTPLHTTSEAFIEKALPWLEDRYFHIAYLNPNGYTAYPQGAFRHYLAFGSEAAIHVSDATRVFETWNEIKKGYTNEWIFVFASYDGKNSVEQLHTSKEAGIAFAAATFFIPEHVWEIQPDGILIHKGSGSSLVTEIQHAEPSTPVQQSDIFVKQVVSKESYFNAFDELQQIIAQGDAYEINYCIPFTAKGNISPAATYQRLNKKTPMPFSVYYKFNTEYILSASPERFIKKTGDTIISQPIKGTSKRGKSKAEDEMLKQQLGTSEKEQSENTMIVDLVRNDLSRTAVAGSVCVPELSGLYTFPNVHQLISTVQSTIDPACSSIDVIQQAFPMGSMTGAPKVNVMKFIDRIESMARGPFSGTVGYMDPHDNFDFNVLIRSIFYNSATQELFMEAGSAITSYAKAETEYEECLLKITPMIHILNNQEGHHHHHH,not failed
4,STVVEIKSQDQFTQLTTTNAANKLIVLYFKAQWADPCKTMSQVLEAVSEKVRQEDVRFLSIDADEHPEISDLFEIAAVPYFVFIQNGTIVKEISAADPKEFVKSLEILSNASASLANNAKGPKSTSDEESSGSSDDEEDETEEEINARLVKLVQAAPVMLFMKGSPSEPKCGFSRQLVGILREHQIRFGFFDILRDENVRQSLKKFSDWPTFPQLYINGEFQGGLDIIKESIEEDPEYFQHALQ,not failed
5,MNVVRYTPWPGQAALQNEIKQVFDRFFEHNGDTDESAVVTAQWVPRVDIKEEPNQFVLYADLPGIDPADIEVQMDKGILSIKGERKTESSSQTEHFSRIERRYGSFHRRFALPDSADADGITASGSHGVLRILIPKQAATTPRRIQVGNAVSSDVALQSMLEHHHHHH,not failed
6,MHYQPKQDLLNDRIILVTGASDGIGREAAMTYARYGATVILLGRNEEKLRQVASHINEETGRQPQWFILDLLTCTSENCQQLAQRIAVNYPRLDGVLHNAGLLGDVCPMSEQNPQVWQDVMQVNVNATFMLTQALLPLLLKSDAGSLVFTSSSVGRQGRANWGAYAASKFATEGMMQVLADEYQQRLRVNCINPGGTRTAMRASAFPTEDPQKLKTPADIMPLYLWLMGDDSRRKTGMTFDAQPGRKPGISQ,failed
7,MAEVKTRDEHDEEPPRFDAQAATIAPETILLHPGPAAIVALGGGEALCNALGEPLRPLFSPEAADSLLPEIRSALETGVPQQKVVDVGRDGLPAQFDLIILPTAEPGRVVVIGRDVTLERTLRKALTDSRQRYKDFVDLSIDFTWETGPDGRFVFVSPDGALGYAARDLVGALPWTLMDITDAQSGATVFNSPVRVKDVDIWVRRRDGTLACLKTSSMPVFDASGEWSGGRGVCHDITEQHDRDKALARALNRQRVVANVERTFRDEIDPSNMLNVAAEALARSVGGDGCLIYRAALDDGPDRPFLPRGRFGEGGDEKVVLTLEALGEGAHAQTTPDGKWTVLVAASRYRRQINGAVVLWRRIERGAWSEDDHLLIVDVANQIGSANEQIGQHDRIISMSRTDGLTGLLNRRAFFDDMDRRLKGPPGLVERRAGEEAARRSERPARSALLYIDLDNFKWVNDAHGHLRGDEALMTVRKILTDHTRATDIVARLGGDEFAIWLEGADAEAASAKAAEILAEDALLRPFDGSPDRPLSLSIGLAIHDPASGEGVEDLTARADMAMYAAKHGGKGRFSLSLPPPHTPT,failed
8,MQNDFDRVFVLTGGPGSGKTTLIAALRRAGFATSVVAGRGIVRDQSSIGGTALPWSDRTLFAELMLSWEMRSYQNAVEQKGPVFFDRGVPETLGYLRLSGLPVADHVSTAAKRFRYNPRVFIAPPWPDIFAQDEERKQTPDEAKCTYHALAEIYTELGYELVPLPLAPVETRLRFVLADAGLEHHHHHH,failed
9,MAAHDDDMNRGIRPGRGSDDPAGQIAYLEQEIAVLRRKLADSPRHTRILEERIVELQTNLAGVSAQNERLANTLREARDQIVALKEEVDRLAQPPAGFGVFLTANEDGTADIFTGGRKLRVNVSPSVELEELRRGQELMLNEALNVVEAMEYESVGDIVTLKEILEDGERALVVGHTDEERVVRLAEPLLDVTIRPGDALLLEPRSGYVYEVVPKSEVEELVLEEVPDIGYEQIGGLGNQIEMIRDAVELPYLYPDLFKEHELRPPKGVLLYGPPGCGKTLIAKAVANSLAKKVAEVTGQATGKSFFLNIKGPELLNKYVGETERQIRLVFQRAREKASEGTPVIVFFDEMESLFRTRGSGVSSDVENTIVPQLLAEIDGVEGLQNVVVIGASNREDMIDPAILRPGRLDVKIKIERPDAEAAKDIFGKYLTERLPLHTEDVGEHGGDRSATVHGMIQTAVEQMYAESEENRFLEVTYANGDKEVLYFKDFNSGAMIENIVGRAKKMAIKDFLEHSQKGLRVSHLLQACVDEFKENEDLPNTTNPDDWARISGKKGERIVYIRTLITGKQGADTGRSIDTVANTGQYL,failed
10,MVSSAIVLGLTAATVLVFTGIGLFAARGRIDSVETYISARDSAGSGTLAATVIASMMGVWILLSPAEAGAAFGGLPAVLGYAIGSAIPLLLFIPVGARIREVMPAGHSLTEFAYARFGSGMYLLVLLVSVFYMFIFLAAEMTGIAGALALVADVPLWQTSLLIGGFVLVYTAYGGLLASIVTDTVQTLVILPLLAVGFGGALLSLGGTSEFHATVVSADPTLLDPGFGPGLEFGLYVAFALLGANMLNQGVWQRVYAADGDGALRRGMGIAAVVVVPMLLLSGLFGIAAAGLGLTESGSASIAFFLVVAEAFPTWVTLAVVVLAVLLVMSSADTMFNAIASVVTADLARLLDDPDQRTLWLGGRGLTVAVALAAMFIGAQGYSVLQLFLTADLLAAGVFVPFLAGLYTERLTGPGALVSGIAGLLVGFTYFPSLRGLMAAIPGVGSMLPAPSFLIAFAGATLVSAALTAVATLLGGADADLDSLGREVRALDDPVADGGSEQ,failed
11,AADGEGRGELSPKIKAGDLESKLIVPKNNGLKITGTFLDEISHDIPHQNWGEKEWDLDFQHMKRIGIDTVIMIRSGYRKFMTYPSPYLLKKGCYMPSVDLVDMYLRLAEKYNMKFYFGLYDSGRYWDTGDLSWEIEDNKYVIDEVWKMYGEKYKSFGGWYISGEISRATKGAIDAFRAMGKQCKDISNGLPTFISPWIDGKKAIMGTGKLTREDAVSVQQHEKEWNEIFDGIHEVVDACAFQDGHIDYDELDAFFTVNKKLADKYGMQCWTNAESFDRDMPIRFLPIKFDKLRMKLEAAKRAGYDKAITFEFSHFMSPQSAYLQAGHLYDRYREYFEIK,not failed
12,MGVKVATSSTFHQWVAHPIVHHSSSLSQTLASSAVSSPSRRRIIGNDGRSSLSCRSVMQSQRLNPSSPFGTSSTNLRHSKSCELWESTKRPKTQLIRRAFSANVDPFSEEEFAKKMQELTLKFQVSNEEEDNESDTRIDDYTRKMDIVGSHNNFRSDSMEPPWPEMVQMSNIERKANSVDLPLSLRIIKRKLQMEEGVLNQVGESACCSVKKAFSSMVFMIRELQSFTLHMRELLLFEDLQGILHRVRKEMQASFVWLFQQVFSATPTLMVSVMILLANFTVYSIESNSALAAAVSPPTTLSFSFETTAEISETQETNQKFDSSMVKTFSVSSPYGKTSFVGGGGGNNIPPPVQSGTDGDGSDQFRKSQFSSSSLGATSADSDVSVSGQEEIRLWNSILEETAKMETLDHETMKGMVSPVEARLEAEESMDYFKTELLYQTGLSQEPGNVLLLANYAQFLYLIIHDYDRAEKYFKRAAKAEPADAEALNKYATFLWRARNDIWRAEETYLEAISADPTNSVYSANYAHFLWNTGGDETCFPLDAPSQQNNTT,failed
13,TEETAKVVPMAVITPAINQLTDQEKAEGWALLFDGKTTKGWRGAHKDAFPDHGWMVKDGELIVQKSDGSESTNGGDIVTEGEYSAFEFSVDFKITEGANSGIKYFVTEQEKQKGSAYGLEFQLLDDAKHPDAKLYTTFPGSRTLGSLYDLKKSENIHFNGVGEWNTAVVKVFPNNHVEHWLNGVKVLEYERGSKEFRDLVKGSKYADPSYNAGGAFGEAPKGHILLQDHGDEVAFRNIKVKELK,not failed
14,MAEQHGDSPVPVELSVVGGFLIAVIVGMLFPADAMTRWMFHPAVVAGCCWAGQLWYVGRKLSVPPAAGNPWRYIFGMANTVTLLRGGLYAVVAGFLVVPATTDLAWVPAACYGVGVVLDKLDGTVARTVGEQTQLGTRLDMAFDTFGFVVAPLVAVFWGQLPVLYLSLSAARYAYVGGIRWRRYRDRPVFERPDSNLGKYLAGVQMVFITAALVPVVPTELVFRLTPVVLAPSLAVFLRDFLVASGRLPREWFDRQR,failed
15,MTNVISYNNDKGLLAYIQFLADRALKPSNGNTDPVFDFEDALDQTEMAQLAVDELKKIPEVNTLFAERWLPAPFNLDDLAKLPEGTLGHVYAIEMKARGFDPYFYKKVPVVDDISYLKMLWRSTHDIYHVVAGFDTDGIGEIGLQAFVLAQTPIPISVMLVSFGMVMTSLYQPAKFQDLMAEIARGYSLGSHTPRKLIAQKWDQFWDVPVIEIRECLGMNTVKQRERA,failed
16,MSSEVEQNVPCEACGCSAEMGFVIKEGDDVAEVSIFADNKVLLESEFSNYLALAKEVCADVEHSIVITEDEKELHARLKFSCSAEKLIYELKTRSLRRLEHHHHHH,failed
17,MNADYFFNQGLSDNLSREYQRTVVGGTKPTNRRIDAETYCKRGITFSRELKDYQGAIAFFNLAVEINPNYAQAYYHRANARYCLADFTAAIADYDQALQINPTFAEYYYCRGNAYLAQGDYDQAIANYISTIEFDPLLASNINEDIANAYYYRGLNNNDQGNYQEAIIDLQQALQWHPYFAAAYSIRGNIYYKLGEYRQAIADHERAVQLDPNLAEAYQNRGNAHYALGAYQKAIADYNRTLEINPHQVGAYYNRGLISFYLHEYQQAFADFNQVLNFNPNDAQAYYQRGLIYEAWQDYQSALADYNQSLQLNSELAVVYGVRANIYRHLGDYPSALADGNRLLELQPNFAAGYCDRATSRRCLGDYRGAIADYNQALQINPNIAEAYYGRAIAHEALRDFIGAIADYTQSIRISPDFAPAYCNRGNARRQLGDTKGAVTDYNQALTINPQLSEAYYNRGSLHYDQQNYRSAIADYTQALELQPESARYYSDRAHARYALQDYQGAVADYTQSIAINPGYAEDWYNRGRSHLLLGYLEEALADLNQALKFHPHWASAYLLRADILRNRGDYQAAIADFQKSADLYSQEGNTQNYQQILEIIAGLK,failed
18,MIGLNTAAIYILQTLGSLYLLIVLLRFILQLVRADFYNPLSQFIVRATKPLLNPLRRIIPGFGGIDLASLVLAILIQLVLMILILMLMGYGVGGFIMQLLIWSIIAVTSLFLKVFFFALIISVILSWVAPGSYNPGAQLVNQICEPLLMPFRKLLPNLGGLDLSPIFAFLALKLIDMLVINNLAAMTGMPQQLSIFL,failed
19,MPYDTSNNTLIVSTRNHQDDDETAIVDDLQRLVNYQISDGGNINHQYFQIAQQFHHTQQQNANANALQLVAAATTATTLMPQTQAALAMNMIPAGTIPNNALWDMWNPIVPDGNRDHYTNIPFK,failed
